Changes are numbered by the printed parent chain.
B1: Wild-type: wild-type tyrosyl-tRNA synthetase of E. coli (SEQ ID NO: 1): position 37 Tyrosine, position 195 Glutamine (protein, listed as Escherichia coli)
chain: MASSNLIKQLQERGLVAQVTDEEALAERLAQGPIALYCGFDPTADSLHLGHLVPLLCLKRFQQAGHKPVALVGGATGLIGDPSFKAAERKLNTEETVQEWVDKIRKQVAPFLDFDCGENSAIAANNYDWFGNMNVLTFLRDIGKHFSVNQMINKEAVKQRLNREDQGISFTEFSYNLLQGYDFACLNKQYGVVLQIGGSDQWGNITSGIDLTRRLHQNQVFGLTVPLITKADGTKFGKTEGGAVWLDPKKTSPYKFYQFWINTADADVYRFLKFFTFMSIEEINALEEEDKNSGKAPRAQYVLAEQVTRLVHGEEGLQAAKRITECLFSGSLSALSEADFEQLAQDGVPMVEMEKGADLMQALVDSELQPSRGQARKTIASNAITINGEKQSDPEYFFKEEDRLFGRFTLLRRGKKNYCLICWK
B2: 37A: E. coli TyrRS variant: position 37 Alanine, position 195 Glutamine (protein, UniProt P0AGJ9 2-424, looked up, variant Y37A)
Tyrosine--tRNA ligase: ASSNLIKQLQERGLVAQVTDEEALAERLAQGPIALACGFDPTADSLHLGHLVPLLCLKRFQQAGHKPVALVGGATGLIGDPSFKAAERKLNTEETVQEWVDKIRKQVAPFLDFDCGENSAIAANNYDWFGNMNVLTFLRDIGKHFSVNQMINKEAVKQRLNREDQGISFTEFSYNLLQGYDFACLNKQYGVVLQIGGSDQWGNITSGIDLTRRLHQNQVFGLTVPLITKADGTKFGKTEGGAVWLDPKKTSPYKFYQFWINTADADVYRFLKFFTFMSIEEINALEEEDKNSGKAPRAQYVLAEQVTRLVHGEEGLQAAKRITECLFSGSLSALSEADFEQLAQDGVPMVEMEKGADLMQALVDSELQPSRGQARKTIASNAITINGEKQSDPEYFFKEEDRLFGRFTLLRRGKKNYCLICWK
B3: LN: E. coli TyrRS double variant: position 37 Leucine, position 195 Asparagine (protein, UniProt P0AGJ9 2-424, looked up, variant Y37L Q195N)
Tyrosine--tRNA ligase: B2 Tyrosine--tRNA ligase with A36L, Q194N
B4: AN: E. coli TyrRS double variant: position 37 Alanine, position 195 Asparagine (protein, UniProt P0AGJ9 2-424, looked up, variant Y37A Q195N)
Tyrosine--tRNA ligase: B2 Tyrosine--tRNA ligase with Q194N
B5: LA: E. coli TyrRS double variant: position 37 Leucine, position 195 Alanine (protein, UniProt P0AGJ9 2-424, looked up, variant Y37L Q195A)
Tyrosine--tRNA ligase: B2 Tyrosine--tRNA ligase with A36L, Q194A
B6: IC: E. coli TyrRS double variant: position 37 Isoleucine, position 195 Cysteine (protein, UniProt P0AGJ9 2-424, looked up, variant Y37I Q195C)
Tyrosine--tRNA ligase: B2 Tyrosine--tRNA ligase with A36I, Q194C
B7: IN: E. coli TyrRS double variant: position 37 Isoleucine, position 195 Asparagine (protein, UniProt P0AGJ9 2-424, looked up, variant Y37I Q195N)
Tyrosine--tRNA ligase: B2 Tyrosine--tRNA ligase with A36I, Q194N
B8: AA: E. coli TyrRS double variant: position 37 Alanine, position 195 Alanine (protein, UniProt P0AGJ9 2-424, looked up, variant Y37A Q195A)
Tyrosine--tRNA ligase: B2 Tyrosine--tRNA ligase with Q194A
B9: VN: E. coli TyrRS double variant: position 37 Valine, position 195 Asparagine (protein, UniProt P0AGJ9 2-424, looked up, variant Y37V Q195N)
Tyrosine--tRNA ligase: B2 Tyrosine--tRNA ligase with A36V, Q194N
B10: LC: E. coli TyrRS double variant: position 37 Leucine, position 195 Cysteine (protein, UniProt P0AGJ9 2-424, looked up, variant Y37L Q195C)
Tyrosine--tRNA ligase: B2 Tyrosine--tRNA ligase with A36L, Q194C
B11: IA: E. coli TyrRS double variant: position 37 Isoleucine, position 195 Alanine (protein, UniProt P0AGJ9 2-424, looked up, variant Y37I Q195A)
Tyrosine--tRNA ligase: B2 Tyrosine--tRNA ligase with A36I, Q194A
B12: AS: E. coli TyrRS double variant: position 37 Alanine, position 195 Serine (protein, UniProt P0AGJ9 2-424, looked up, variant Y37A Q195S)
Tyrosine--tRNA ligase: B2 Tyrosine--tRNA ligase with Q194S
B13: VS: E. coli TyrRS double variant: position 37 Valine, position 195 Serine (protein, UniProt P0AGJ9 2-424, looked up, variant Y37V Q195S)
Tyrosine--tRNA ligase: B2 Tyrosine--tRNA ligase with A36V, Q194S

Experiment: Aminoacylation reaction, simplified Lloyd's method, inorganic phosphate detected with Biomol green
Type: biochemical
Design: key: ***: the aminoacylation reaction was detected by a microplate reader in the reaction at enzyme concentrations of 50 nM; **: 500 nM; *: 5 μM; the activity is high in the order of *** > ** > * > —
Conditions: Table 2; 3-iodotyrosine 1 mM; 37° C. for 4 min
Experimental: (§1) In the first method, Lloyd's method (Nucleic Acids Research, 23:2886-2892, 1995) where inorganic phosphate produced by pyrophosphatase-drived hydrolysis of pyrophosphate which was one of the reaction products of the aminoacylation reactions was quantified was simplified, and the inorganic phosphate was detected using Biomol green (Funakoshi) to carry out the measurement of the aminoacylation reaction.
(§2) Amino acid concentrations were 200 μM and 1 mM for tyrosine and 3-iodotyrosine, respectively.
(§3) The method where the aminoacylation reaction is measured by quantifying inorganic phosphate produced by pyrophosphatase-drived hydrolysis of pyrophosphate which is one of reaction products of the aminoacylation has been described by Lloyd et al. (Nucleic Acids Research, 23:2886-2892, 1995). In one method of the invention, this method was simplified and the aminoacylation reaction was measured by the detection of inorganic phosphate using Biomol green (Funakoshi). Each enzyme obtained was incubated with 0.05 ml of the buffer B containing 1 mM ATP (Seikagaku Corporation), 30 μM purified crude tyrosyl-tRNA, and 100 μM tyrosine or 0.5 mM 3-iodotyrosine at 37° C. for one hour. To stop the reaction, 0.1 ml of Bio mol green was added. Absorbance of its supernatant was measured at 630 nm.

Molecule | Aminoacylation activity, 3-iodotyrosine
B1 | —
B2 | ***

Same assay, conditions: Table 3; 3-iodotyrosine 1 mM; 37° C. for 4 min

Molecule | Aminoacylation activity, 3-iodotyrosine
B1 | —
B3 | —
B4 | —
B5 | —
B6 | —
B7 | —
B8 | —

Experiment: as above
Type: biochemical
Design: key: ***: the aminoacylation reaction was detected by a microplate reader in the reaction at enzyme concentrations of 50 nM; **: 500 nM; *: 5 μM; the activity is high in the order of *** > ** > * > —
Conditions: Table 2; tyrosine 200 μM; 37° C. for 4 min
Experimental: as §1, §2
as §3, with “Each enzyme obtained was incubated with 0.05 ml of the buffer B containing 1 mM ATP (Seikagaku Corporation), 30 μM purified crude tyrosyl-tRNA, and 100 μM tyrosine or 0.5 mM 3-iodotyrosine at 37° C. for one hour.” left out

Molecule | Aminoacylation activity, Tyrosine
B1 | ***
B2 | ***

Same assay, conditions: Table 3; tyrosine 200 μM; 37° C. for 4 min

Molecule | Aminoacylation activity, Tyrosine
B9 | —
B4 | —
B6 | —
B7 | —
B8 | —

Experiment: as above
Type: biochemical
Design: key: ***: the reaction could be detected strongly at 25 nM; **: strongly at 250 nM; *: weakly at 250 nM; the activity is high in the order of *** > ** > * > —
Conditions: Table 3; 3-iodotyrosine 1 mM; 37° C. for 4 min
Experimental: as §1, §2, §3

Molecule | Aminoacylation activity, 3-iodotyrosine
B9 | **
B10 | *
B11 | *
B12 | *
B13 | **

Experiment: Aminoacylation activity by Lloyd's method (release of pyrophosphates)
Type: biochemical
Conditions: 3-iodotyrosine versus tyrosine, from Table 4
Experimental: In the second method, Lloyd's method (Nucleic Acids Research, 23:2886-2892, 1995) was carried out without alteration.
In the second method, the activity was assayed by Lloyd's method (Nucleic Acids Research, 23:2886-2892, 1995). Each enzyme obtained was incubated with 0.4 ml of the buffer B containing 1 mM ATP (Seikagaku Corporation), 100 μM purified crude tyrosyl-tRNA, 200 μM tyrosine or 3-iodotyrosine at 37° C. for 6 min. The aminoacylation activity was represented as concentrations of released phosphate per min.

Molecule | relative tyrosine analogue to tyrosine ratio
B9 | inferior to VC
B13 | inferior to VC

Same assay, conditions: at 37° C.; 200 μM 3-iodotyrosine

Molecule | Initial velocity of release of pyrophosphates, 3-iodotyrosine
B1 | <0.05 nM PPi/min/nM enzyme
B9 | 6.9 nM PPi/min/nM enzyme
B2 | 12 nM PPi/min/nM enzyme
B13 | 18 nM PPi/min/nM enzyme

Same assay, conditions: at 37° C.; 200 μM tyrosine

Molecule | Initial velocity of release of pyrophosphates, Tyrosine
B1 | 400 nM PPi/min/nM enzyme
B9 | 2.1 nM PPi/min/nM enzyme
B2 | 51 nM PPi/min/nM enzyme
B13 | 19 nM PPi/min/nM enzyme

Experiment: Aminoacylation reaction, simplified Lloyd's method, inorganic phosphate detected with Biomol green
Type: biochemical
Design: key: ***: the reaction could be detected strongly at 25 nM; **: strongly at 250 nM; *: weakly at 250 nM; the activity is high in the order of *** > ** > * > —
Conditions: Table 3; tyrosine 200 μM; 37° C. for 4 min
Experimental: as §1, §2
as §3, with “Each enzyme obtained was incubated with 0.05 ml of the buffer B containing 1 mM ATP (Seikagaku Corporation), 30 μM purified crude tyrosyl-tRNA, and 100 μM tyrosine or 0.5 mM 3-iodotyrosine at 37° C. for one hour.” left out

Molecule | Aminoacylation activity, Tyrosine
B1 | ***
B10 | *
B3 | *
B5 | *
B11 | *
B12 | *
B13 | **

From patent publication US7393670B2, “Tyrosyl-tRNA synthetase variants” (Japan Science and Technology Agency, priority 2001, dated 2008)
